Substitutions are numbered along the chain they refer to.
B1: 3.1404 (antibody, from a related filing, V domains shown)
VH: QVQLVQSGAEVKKPGASVKVSCKASGYTFTRYGISWVRQAPGQGLEWMGWISTYSGNTNYAQKLQGRVTMTTDTSTSTAYMELRSLRSDDTAVYYCARRQLYFDYWGQGTLVTVSS
VL: EIVMTQSPATLSVSPGERATLSCRASQSVSSNLAWFQQKPGQAPRPLIYDASTRATGVPARFSGSGSGTDFTLTISSLQSEDFAVYYCQQYDNWPLTFGGGTKVEIK
B2: 3.381 (antibody, from a related filing, V domains shown)
VH: B1 VH with T53A
VL: B1 VL with A19V, T56A, V58I

Target: human IL-17RA (human) (UniProt Q96F46)
Assay: cell-based or functional assay

| Binder | % Inhib. of IL-5 production, TSLP treated human PBMC + IL-2 + IL-25, Expt. 1 | % Inhib. of IL-5 production, TSLP treated human PBMC + IL-2 + IL-25, Expt. 2 | % Inhibition of IL-5 production, TSLP treated human PBMC + IL-2 + IL-25; inhibitor 0.1 micrograms/mL | % Inhibition of IL-5 production, TSLP treated human PBMC + IL-2 + IL-25; inhibitor 1.0 micrograms/mL | % Inhibition of IL-5 production, TSLP treated human PBMC + IL-2 + IL-25; inhibitor 10 micrograms/mL |
| --- | --- | --- | --- | --- | --- |
| B1 | 68% | 76% | 12% | 54% | – |
| B2 | 90% | 75% | – | – | 100% |
